For data set [1], the target named is T1, Substance P (SP) (UniProt P20366).
T1 sequence: RPKPQQFFGLM
The following applies: equilibrium dialysis rough estimate, 20 uM RNA, fraction bound 0.017.

Data set [2] concerns the target T2, Substance P (SP) (UniProt P20366).
T2 chain: RPKPQQFFGLM
The data set is described as follows: single-point equilibrium dialysis; stated for all class 2. Particulars: protein: synthetic; tags: free synthetic peptide, C-terminal amide, Sigma (3H-SP from NEN as tracer). As to the method: (§1) Binding reactions consisted of 20 nM ^3H-SP (P_o) and either 0.2 µM RNA (a) or 1.0 µM RNA (b). ND=not determined.
(§2) Equilibrium dialysis. Equilibrium dialysis experiments were performed with a Spectra/Por® (Spectrum; Houston, Tex.) equilibrium dialyzer, Spectra/Por® (Spectrum; Houston, Tex.) microcell dialysis chambers (200-μl chamber volumes), and 12000–14000 MWCO dialysis membranes (Spectrum; Houston, Tex.). These membranes allow passage of SP but not 107-nt RNAs. Sample volumes were 200 μl on each side of the membrane (i.e., 200 μl per chamber). All experiments were at room temperature in 1X SP binding buffer. RNAs (unlabeled) were denatured prior to re-equilibration in binding buffer as described above for Experiment B. For binding curves (FIG. 4), RNA concentrations between 50 nM and 20 μM were utilized. […] For binding competition experiments (FIGS. 6 and 7), equal concentrations of the competing peptide were applied to each side of the membrane at the start of dialysis. The dialysis cells were rotated at 10 rpm to shorten the time required to reach equilibrium. […] Following equilibration, samples were withdrawn from the dialysis chambers, added to scintillation fluid, and counted.

Data set [3] deals with T2, Substance P (SP). Put plainly: single-point equilibrium dialysis. The following applies: protein: synthetic; tags: free synthetic peptide, C-terminal amide, Sigma (3H-SP from NEN as tracer). How it is done: as §1, §2
A general note: In equilibrium dialysis only unbound substance equilibrates across the membrane.

The target in data set [4] is T2, Substance P (SP). Put plainly: equilibrium dialysis, five-point curve; single-point screen gave 170 nM; 10 mM HEPES pH 7.0, 150 mM NaCl, 5 mM KCl, 5 mM CaCl2, room temp. The following applies: protein: synthetic; tags: free synthetic peptide, C-terminal amide, Sigma (3H-SP from NEN as tracer). How it is done: as §2
In data set [5] the target is T3, Substance P fragment 2-11.
T3 chain: PKPQQFFGLM
Put plainly: competition; unable to compete at 32 uM (20-fold excess over SP). Particulars: protein: synthetic; tags: synthetic peptide, Sigma. How it is done:
as §2

Data set [6] addresses T4, Reverse-orientation substance P (rSP).
T4 chain: CMLGFFQQPKPR
Put plainly: competition; poor competitor of 3H-SP up to 100 uM; 1.6 uM RNA, 1.6 uM SP. Particulars: protein: synthetic; tags: synthetic peptide. As to the method: as §2, with “These” for “Equilibrium dialysis. Equilibrium dialysis experiments were performed with a Spectra/Por® (Spectrum; Houston, Tex.) equilibrium dialyzer, Spectra/Por® (Spectrum; Houston, Tex.) microcell dialysis chambers (200-μl chamber volumes), and 12000–14000 MWCO dialysis membranes (Spectrum; Houston, Tex.). These”

Data set [7] addresses T2, Substance P (SP). The data set is described as follows: equilibrium dialysis, five-point curve; earlier estimate 14 uM; SP binding buffer, room temp. The following applies: protein: synthetic; tags: free synthetic peptide, C-terminal amide, Sigma (3H-SP from NEN as tracer). How it is done:
as §2

In data set [8] the target is T2, Substance P (SP). The data set is described as follows: single-point equilibrium dialysis; exception to the >2 uM statement, exact value only in figure. The following applies: protein: synthetic; tags: free synthetic peptide, C-terminal amide, Sigma (3H-SP from NEN as tracer). How it is done:
as §1, §2

Where two headings read alike, the source gives them in different places. Some results are limits rather than exact numbers.

A word on the Kd: it is the constant that tells how readily two partners part at equilibrium. Consider “GGGAGCUCAGAAUAAACGCUCAANNNNNNNNNNNNNNNNNNNNNNNNNNNNNNNNNNNNNNNNNNNNNNNNNNNNNNNNNNNNUUCGACAUGAGGCCCGGAUCCGGC [Unselected random 60N RNA pool]”, for which, in the data set with Substance P (SP) [1], the dissociation constant Kd is 1.2 mM.

B1: Experiment B class 2 ligand (SEQ 54) (ssRNA)
RNA: GGGAGCUCAGAAUAAACGCUCAAAAACAGGACACCAAGAUUAUUGGACGAGUUUACUAGGGCGAUUAAUGGGCUCGCGAUGAUUCGACAUGAGGCCCGGAUCCGGC
For B1, in the data set with Substance P (SP) [2], the Kd is more than 2000 nM.

B2: Ligand B22 (class 3) (ssRNA)
RNA: GGGAGCUCAGAAUAAACGCUCAAAAGGUAAGAAACAGGACACGCACUUAAACAGACGAGUUAACCAUACCUAGAUCGCGGAAUUCGACAUGAGGCCCGGAUCCGGC
On to B2, for which the Kd in the data set with Substance P (SP) [3] is more than 2000 nM.

B3: Ligand B28 (ssRNA)
RNA: GGGAGCUCAGAAUAAACGCUCAACUUCCAAGGCAGUGGAAACCCUAAGGUCAAUAAUGACCAAUGACGCCGCUCCGGUUCAACCUUCGACAUGAGGCCCGGAUCCGGC
As for B3, in the data set with Substance P (SP) [4], the equilibrium dissociation constant (Kd) was found to be 190 nM. Also, the binding result in data set [5] and in data set [6] was “no binding” each time.

B4: Ligand A13 (ssRNA)
RNA: GGGAGCUCAGAAUAAACGCUCAAGGGCAACGCGGGCACCCCGACAGGUGCAAAAACGCACCGACGCCCGGCCGAAGAAGGGGAUUCGACAUGAGGCCCGGAUCCGGC
Take B4: the Kd in the data set with Substance P (SP) [7] is 5.8 µM.

B5: Experiment B class 2 ligand (SEQ 52) (ssRNA)
RNA: GGGAGCUCAGAAUAAACGCUCAAAAACAGGACACCAAUUUUAUUGGACGAGUUUACUAGGGCGGUAUUAUGGGCUCGCGAGGAUUCGACAUGAGGCCCGGAUCCGGC
B5 registered a Kd with Substance P (SP) [2] of more than 2000 nM.

B6: Experiment B class 2 ligand (SEQ 50) (ssRNA)
RNA: GGGAGCUCAGAAUAAACGCUCAAGAACAGGACACCAAGAUAAUUGGACGAGUUUACUAGGGCGGCUAUGCUGGCUCUCGAGGAUUCGACAUGAGGCCCGGAUCCGGC
Turning to B6, the Kd in the data set with Substance P (SP) [2] is more than 2000 nM.

B7: Experiment B class 2 ligand (SEQ 48) (ssRNA)
RNA: GGGAGCUCAGAAUAAACGCUCAAAAAACAGGACACCAUGAUAAAUGGACGAGUUCACUGGAGCGUCUAAAAGGGCACCCUUGGAUUCGACAUGAGGCCCGGAUCCGGC
Molecule B7 returned a Kd with Substance P (SP) [2] of more than 2000 nM.

B8: Experiment B class 2 ligand (SEQ 49) (ssRNA)
RNA: GGGAGCUCAGAAUAAACGCUCAAUAACAGGACACCAUGAUUAAUGGACGAGUUCACUAGGGCGGUUAAAAGAGCUCUCGAGGAUUCGACAUGAGGCCCGGAUCCGGC
For the molecule B8, in the data set with Substance P (SP) [2], the Kd is more than 2000 nM.

B9: Ligand B32 (class 3) (ssRNA)
RNA: GGGAGCUCAGAAUAAACGCUCAAAAAGGCACUGACCACCCUCAGGAAGAAUAACCGCGGUCACCCGCAUCCGAGUCUAUCAAUUUCGACAUGAGGCCCGGAUCCGGC
As for B9, the Kd in the data set with Substance P (SP) [8] is less than 2000 nM.

B10: Experiment B class 2 ligand (SEQ 53) (ssRNA)
RNA: GGGAGCUCAGAAUAAACGCUCAAAAACAGGACACCAUGAAAAUGGACGAGUUCACUAGAGCGUUGAGCUGUGCGCCCGUGGAUUCGACAUGAGGCCCGGAUCCGGC
Turning to B10, the Kd in the data set with Substance P (SP) [2] is more than 2000 nM.

B11: Experiment B class 2 ligand (SEQ 55) (ssRNA)
RNA: GGGAGCUCAGAAUAAACGCUCAAAACAGGACACCUUGAAUAAAGGACGAGUUUACUGUGCGUUUAGUAGAGAACCCGGGAUUCGACAUGAGGCCCGGAUCCGGC
In the data set with Substance P (SP) [2], B11 registered a Kd of more than 2000 nM.

B12: Experiment B class 2 ligand (SEQ 51) (ssRNA)
RNA: GGGAGCUCAGAAUAAACGCUCAAGAACAGGACACCUGGUUCUCAGGACGAGUUUACUAGGGCGGCAAAAAGGGCUCUCGUGGGUUCGACAUGAGGCCCGGAUCCGGC
In the data set with Substance P (SP) [2], B12 had a Kd of more than 2000 nM.

B13: Ligand B23 (class 3) (ssRNA)
RNA: GGGAGCUCAGAAUAAACGCUCAAGCUCAAGGCAGAAACAGGACACACCAAGACGAGUUAACCAGCCCAGCUUGACCAUACAUUCGACAUGAGGCCCGGAUCCGGC
With B13, the Kd with Substance P (SP) [3] was more than 2000 nM.

Values taken from patent US5637682, “High-affinity oligonucleotide ligands to the tachykinin substance P” (NeXstar Pharmaceuticals, Inc.).
